Measurements: publication PMC3522304

Molecular target: hematopoietic form of CD44 (CD44-H) fused to CFP or YFP (human) (UniProt P16070)
Assay: FRET or BRET

FRET efficiency (E) with nHA followed by oHA: -15.3%
Substance: hematopoietic form of CD44 (CD44-H) fused to CFP or YFP (from UniProt P16070-12 21-361) (receptor)
